In patent US20230242653A1 (TENEOBIO, published 2023):

T1: human IL-2Rβγ receptor (IL-2RB / IL-2RG) on human T-cells (human, UniProt P14784 27-551; P31785 23-369)
T1 construct: also called IL2RB/IL2RG dimeric receptor complex
T1 sequence 1: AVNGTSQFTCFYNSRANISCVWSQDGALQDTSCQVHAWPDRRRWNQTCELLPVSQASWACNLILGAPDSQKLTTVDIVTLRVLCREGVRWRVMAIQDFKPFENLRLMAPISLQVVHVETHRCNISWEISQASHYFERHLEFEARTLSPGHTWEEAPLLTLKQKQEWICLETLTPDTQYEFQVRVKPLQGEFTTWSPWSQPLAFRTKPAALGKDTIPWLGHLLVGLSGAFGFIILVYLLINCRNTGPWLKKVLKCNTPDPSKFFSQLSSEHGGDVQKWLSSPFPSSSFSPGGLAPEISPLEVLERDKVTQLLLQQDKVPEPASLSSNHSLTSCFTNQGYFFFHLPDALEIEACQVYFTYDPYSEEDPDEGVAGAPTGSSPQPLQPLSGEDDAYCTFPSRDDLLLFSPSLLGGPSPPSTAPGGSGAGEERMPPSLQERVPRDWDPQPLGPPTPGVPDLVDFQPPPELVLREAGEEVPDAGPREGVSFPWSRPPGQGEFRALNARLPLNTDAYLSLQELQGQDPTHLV
T1 sequence 2: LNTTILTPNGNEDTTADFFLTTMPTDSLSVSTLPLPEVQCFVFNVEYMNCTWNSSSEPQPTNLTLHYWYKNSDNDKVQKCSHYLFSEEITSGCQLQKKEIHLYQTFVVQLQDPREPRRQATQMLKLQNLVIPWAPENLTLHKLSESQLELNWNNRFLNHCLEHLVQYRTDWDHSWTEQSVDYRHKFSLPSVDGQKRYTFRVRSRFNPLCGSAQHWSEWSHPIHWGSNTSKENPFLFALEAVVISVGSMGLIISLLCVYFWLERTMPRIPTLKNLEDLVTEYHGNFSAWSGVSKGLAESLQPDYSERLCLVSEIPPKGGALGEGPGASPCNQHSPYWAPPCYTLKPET

T2: human IL-2Rα (Sino Biological) (human, UniProt P01589 22-213, limits assumed)
T2 construct: also called IL2RA; IL-2RA
T2 sequence: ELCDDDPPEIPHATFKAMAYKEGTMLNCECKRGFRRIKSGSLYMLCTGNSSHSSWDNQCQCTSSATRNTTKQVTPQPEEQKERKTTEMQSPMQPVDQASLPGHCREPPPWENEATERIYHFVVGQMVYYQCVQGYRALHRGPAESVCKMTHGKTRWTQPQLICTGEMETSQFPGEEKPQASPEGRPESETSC

T3: IL-7R (Sino Biological) (UniProt P16871 21-239)
T3 sequence (looked up): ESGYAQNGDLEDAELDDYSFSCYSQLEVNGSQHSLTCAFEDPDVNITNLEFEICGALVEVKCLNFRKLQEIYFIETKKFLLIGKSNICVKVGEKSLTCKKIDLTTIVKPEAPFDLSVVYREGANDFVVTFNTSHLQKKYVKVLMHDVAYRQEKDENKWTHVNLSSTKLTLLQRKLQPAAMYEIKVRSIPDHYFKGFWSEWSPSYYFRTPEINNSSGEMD

T4: IL-9R (R&D Systems) (UniProt Q01113 41-270, limits assumed)
T4 sequence (looked up): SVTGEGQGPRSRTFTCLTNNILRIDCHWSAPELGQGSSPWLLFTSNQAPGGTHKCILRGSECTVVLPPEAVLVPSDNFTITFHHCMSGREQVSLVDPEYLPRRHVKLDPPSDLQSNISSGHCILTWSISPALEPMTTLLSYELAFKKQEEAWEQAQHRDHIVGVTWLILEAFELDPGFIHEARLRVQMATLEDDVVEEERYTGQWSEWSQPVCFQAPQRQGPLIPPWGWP

T5: IL-4R (Sino Biological) (UniProt P24394 26-232)
T5 construct: also called IL-4Ra
T5 sequence (looked up): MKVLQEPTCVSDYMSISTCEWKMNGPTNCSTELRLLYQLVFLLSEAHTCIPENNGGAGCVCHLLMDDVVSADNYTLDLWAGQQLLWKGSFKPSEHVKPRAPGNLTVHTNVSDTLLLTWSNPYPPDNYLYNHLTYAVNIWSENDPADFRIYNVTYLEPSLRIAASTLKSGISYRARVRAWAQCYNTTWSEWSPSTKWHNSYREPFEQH


Columns and labels:
[1] = target: T1, human IL-2Rβγ receptor (IL-2RB / …); experiment: flow cytometry, human CD4+ T-cells, anti-human IgG-PE detection, gMFI as fold over secondary-only background
Procedure: (§1) All washes and dilutions of cells, antibodies, and reagents were performed using flow buffer (1X PBS, 1% BSA, 0.1% NaN3, pH 7.4). Staining was performed in a round-bottom 96-well plate (Corning) seeded at 100,000 cells/well and all incubations were performed at 4° C. or on ice. […] The cells were washed twice with 200 µL flow buffer. The cells were then incubated for 30 minutes with detection antibody (Goat F(ab′)2 Anti-Human IgG-PE, Southern Biotech) at 0.625 µg/mL in flow buffer. Following 2 more washes, the cells were resuspended in a final volume of 150 µL of flow buffer. The cells were analyzed on a BD FACSCelesta or a Guava easyCyte 8-HT flow cytometer. At least 3000 events were collected, and PE geometric mean fluorescence intensity was plotted as a fold over background (cells incubated with secondary detection antibody only). In some secondary screens involving human or cynomolgus PBMCs, an additional CD4 antibody (BioLegend) and/or CD8 antibody (BioLegend) was included to further characterize cell binding.

[2] = target: T2, human IL-2Rα (Sino Biological); experiment: Octet BLI off-rate analysis, antibody on AHC sensors
Procedure: (§2) All off-rate measurements were performed on an Octet Qk384 instrument (ForteBio), in 96-well microplates at 25° C. using anti-human IgG Fc capture (AHC, 18-5005) sensors with a shake speed of 1000 rpm. For off-rate determination, the antibodies were loaded on the AHC sensors at 5 µg/mL. Following a short baseline in kinetics buffer (0.02% Tween20, 0.1% BSA, 0.05% sodium azide, 1X PBS). Offrate measurements were done for the following: human IL-2Rβ (AcroBiosystems), human IL- 2Ry (Sino Biological), cynomolgus IL-2Rβ (Sino Biological), cynomolgus IL-2Rγ (expressed and purified in house using ExpiCHO expression system followed by Ni-NTA His-tag purification), mouse IL-2Rγ (Sino Biological), mouse IL-2Rβ (Sino Biological), human IL-2Rα (Sino Biological), IL-4R (Sino Biological), IL-7R (Sino Biological), IL-9R (R&D Systems) and IL-21R (Sino Biological). The following antibodies were used as positive controls to verify target binding and reagent quality: anti-human IL-9R (R&D Systems), anti-human IL-21R (R&D Systems), anti-human IL-7R (R&D Systems) and anti-human IL-4Ra (R&D Systems). The loaded sensors were then submerged in wells containing antigen at 100 nM concentration for association step. Dissociation was monitored in kinetics buffer. The capture surfaces were regenerated for 60 s. ForteBio data analysis software was used to fit the data to a 1:1 binding model to extract an association rate and dissociation rate.

IL-21R (Sino Biological) = IL-21R (Sino Biological) (UniProt Q9HBE5 20-232); experiment: as above
IL-21R (Sino Biological), sequence (Q9HBE5 20-232 limits assumed): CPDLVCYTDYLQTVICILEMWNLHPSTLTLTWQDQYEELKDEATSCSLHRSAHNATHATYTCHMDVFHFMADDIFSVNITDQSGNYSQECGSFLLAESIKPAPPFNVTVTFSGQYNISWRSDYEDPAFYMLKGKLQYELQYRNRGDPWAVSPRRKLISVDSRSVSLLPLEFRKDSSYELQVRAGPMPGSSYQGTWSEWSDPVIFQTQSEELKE
Procedure: as §2

IL-7R (Sino Biological) = target: T3, IL-7R (Sino Biological); experiment: as above
Procedure: as §2

IL-9R (R&D Systems) = target: T4, IL-9R (R&D Systems); experiment: as above
Procedure: as §2

IL-4R (Sino Biological) = target: T5, IL-4R (Sino Biological); experiment: as above
Procedure: as §2

[3] = target: T1, human IL-2Rβγ receptor (IL-2RB / …); experiment: flow cytometry, human CD8+ T-cells, anti-human IgG-PE detection, gMFI as fold over secondary-only background
Procedure: as §1

[4] = target: cynomolgus IL-2Rβγ receptor (IL-2RB / IL-2RG) on cynomolgus T-cells (cynomolgus, UniProt Q38J85 27-551); experiment: flow cytometry, cynomolgus CD8+ T-cells, anti-human IgG-PE detection, gMFI as fold over secondary-only background
cynomolgus IL-2Rβγ receptor (IL-2RB / IL-2RG) on cynomolgus T-cells, sequence (Q38J85 27-551): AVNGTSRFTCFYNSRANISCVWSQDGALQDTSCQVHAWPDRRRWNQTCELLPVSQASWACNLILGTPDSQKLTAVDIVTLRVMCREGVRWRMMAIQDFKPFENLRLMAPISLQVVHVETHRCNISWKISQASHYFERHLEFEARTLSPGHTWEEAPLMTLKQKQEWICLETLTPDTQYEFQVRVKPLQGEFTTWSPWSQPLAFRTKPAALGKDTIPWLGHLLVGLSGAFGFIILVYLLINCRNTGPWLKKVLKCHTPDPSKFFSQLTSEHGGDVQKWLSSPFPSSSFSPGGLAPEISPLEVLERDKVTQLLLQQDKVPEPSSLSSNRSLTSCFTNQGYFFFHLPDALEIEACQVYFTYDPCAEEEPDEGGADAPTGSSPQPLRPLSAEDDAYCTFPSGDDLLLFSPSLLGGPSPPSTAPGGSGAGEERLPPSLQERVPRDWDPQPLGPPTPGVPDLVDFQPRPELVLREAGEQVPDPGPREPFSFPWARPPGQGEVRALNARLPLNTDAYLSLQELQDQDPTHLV
Procedure: as §1

Binder	EC50 (read off the curve) [1]	binding result [2]	binding result (IL-21R (Sino Biological))	binding result (IL-7R (Sino Biological))	binding result (IL-9R (R&D Systems))	binding result (IL-4R (Sino Biological))	EC50 (read off the curve) [3]	EC50 (read off the curve) [4]
IL2RB_F09G**IL2RG_F16B (bispecific antibody, human IgG4, V domains shown, Bispecific heavy chain-only UniAb on silenced, stabilized human IgG4 Fc without CH1, knobs-into-holes; also called BsAb-2; not shown: C-terminal His-tag on the knob chain) V domain 1: QVQLQESGPGLVKSSETLSLTCTVSGGSISSSDWWSWVRQPPGKGLEWIGEIDHSGSTNYNPSLMSRVTISVDKSKNQFSLKLSSVTAADTAVYFCARGSWELTDAFDIRGQGTLVTVSS V domain 2: QVQLVESGGGLVKPGGSLRLSCAASGFTFSDYYMSWIRQAPGKGLEWVSYISSSGSTIYYADSVKGRFTISRDNAKNSLYLQMNSLRAEDTAVYYCARGDAVSITGDYRGQGTLVTVSS	~5 nM	no binding (tested: 100 nM antigen)	no binding (tested: 100 nM antigen)	no binding (tested: 100 nM antigen)	no binding (tested: 100 nM antigen)	no binding (tested: 100 nM antigen)		
IL2RB_F09G**IL2RG_F18A (bispecific antibody, human IgG4, V domains shown, Bispecific heavy chain-only UniAb on silenced, stabilized human IgG4 Fc without CH1, knobs-into-holes; also called BsAb-4; not shown: C-terminal His-tag on the knob chain) V domain 1: QVQLQESGPGLVKSSETLSLTCTVSGGSISSSDWWSWVRQPPGKGLEWIGEIDHSGSTNYNPSLMSRVTISVDKSKNQFSLKLSSVTAADTAVYFCARGSWELTDAFDIRGQGTLVTVSS V domain 2: QVQLVESGGDLVKPGGSLRLSCAASGFTFSDYYMSWLRQAPGKELEWVSHISSSGTTTYYADSVEGRFTITRDNAKNSLYLQMNSLRAEDTAVYYCARGAAVAPGFDSRGQGTLVTVSS		no binding (tested: 100 nM antigen)	no binding (tested: 100 nM antigen)	no binding (tested: 100 nM antigen)	no binding (tested: 100 nM antigen)	no binding (tested: 100 nM antigen)		
IL2RB_F18E**IL2RG_F16A (bispecific antibody, human IgG4, V domains shown, Bispecific heavy chain-only UniAb on silenced, stabilized human IgG4 Fc without CH1, knobs-into-holes; also called BsAb-6; not shown: C-terminal His-tag on the knob chain) V domain 1: QVQLVESGGGVVQPGRSLRLSCAASGFTFSSYGMHWVRQAPGKEREWVAVISYDGSNKYYTDSVKGRFTISRDNSKNTLYLEMNSLRAEDTAVYYCARDLDYDVLTGDPVGGFDIWGQGTLVTVSS V domain 2: QVQLVESGGGLVKPGGSLRLSCAASGFTFSDYYMSWIRQAPGKGLEWVSSISSSGDTIYYADSVQGRFTLSRDNAENSLFLQMNSLRAEDTAVYYCARGDAVSITGDYRGQGTLVTVSS		no binding (tested: 100 nM antigen)	no binding (tested: 100 nM antigen)	no binding (tested: 100 nM antigen)	no binding (tested: 100 nM antigen)	no binding (tested: 100 nM antigen)		
IL2RB_F09G**IL2RG_F16C (bispecific antibody, human IgG4, V domains shown, Bispecific heavy chain-only UniAb on silenced, stabilized human IgG4 Fc without CH1, knobs-into-holes; also called BsAb-3; not shown: C-terminal His-tag on the knob chain) V domain 1: QVQLQESGPGLVKSSETLSLTCTVSGGSISSSDWWSWVRQPPGKGLEWIGEIDHSGSTNYNPSLMSRVTISVDKSKNQFSLKLSSVTAADTAVYFCARGSWELTDAFDIRGQGTLVTVSS V domain 2: QVQLVESGGGLVKPGGSLRLSCAASGFTFNDYYMSWIRQAPGKGLEWVSHISSSGSTIYYADSVKGRFTVSRDNANNSLYLQMHSLRAEDTAVYYCARGDAVSITGDYRGQGTLVTVSS	~6 nM	no binding (tested: 100 nM antigen)	no binding (tested: 100 nM antigen)	no binding (tested: 100 nM antigen)	no binding (tested: 100 nM antigen)	no binding (tested: 100 nM antigen)	~6 nM	
IL2RB_F09C**IL2RG_F16A (bispecific antibody, human IgG4, V domains shown, Bispecific heavy chain-only UniAb on silenced, stabilized human IgG4 Fc without CH1, knobs-into-holes; also called BsAb-1; not shown: C-terminal His-tag on the knob chain) V domain 1: QVQLQESGPGLVKPSGTLSLTCAVSGGSISSSDWWSWVRQPPGKGLEWIGEIDHSGSTNYNPSLMSRVTISVDKSKNQFSLKLSSVTAADTAVYFCGRGSWELSDAFDIRGQGTLVTVSS V domain 2: QVQLVESGGGLVKPGGSLRLSCAASGFTFSDYYMSWIRQAPGKGLEWVSSISSSGDTIYYADSVQGRFTLSRDNAENSLFLQMNSLRAEDTAVYYCARGDAVSITGDYRGQGTLVTVSS	~5 nM	no binding (tested: 100 nM antigen)	no binding (tested: 100 nM antigen)	no binding (tested: 100 nM antigen)	no binding (tested: 100 nM antigen)	no binding (tested: 100 nM antigen)		
IL2RB_F09K**IL2RG_F16B (bispecific antibody, human IgG4, V domains shown, Bispecific heavy chain-only UniAb on silenced, stabilized human IgG4 Fc without CH1, knobs-into-holes; also called BsAb-5; not shown: C-terminal His-tag on the knob chain) V domain 1: QVQLQESSPGLVKPSETLSLTCTVSGGSISSSNWWSWVRQPPGKGLEWIGEISHSGSTNYNPSLKSRVTISVDKSKNQFSLRLSSVTAADTAVYFCGRGSWELTDAFDIRGQGTLVTVSS V domain 2: QVQLVESGGGLVKPGGSLRLSCAASGFTFSDYYMSWIRQAPGKGLEWVSYISSSGSTIYYADSVKGRFTISRDNAKNSLYLQMNSLRAEDTAVYYCARGDAVSITGDYRGQGTLVTVSS		no binding (tested: 100 nM antigen)	no binding (tested: 100 nM antigen)	no binding (tested: 100 nM antigen)	no binding (tested: 100 nM antigen)	no binding (tested: 100 nM antigen)		~5 nM
